This assay deals with Type B human insulin receptor (hIR-B) (human), P06213. The assay is described as follows: cell-based or functional assay.

Residue numbers refer to the chain shown, from its start.

B1: fusion protein 5 (insulin analog 1 + L2 + IgG2 Fc1) (Fc fusion)
chain: FVNQHLCGEHLVEALYLVCGERGFHYGGGGGGSGGGGGIVEQCCESICSLEQLENYCGGGGGQGGGGQGGGGQGGGGQGGGGQECPPCPAPPVAGPSVFLFPPKPKDTLMISRTPEVTCVVVDVSHEDPEVQFNWYVDGVEVHNAKTKPREEQFNSTFRVVSVLTVVHQDWLNGKEYKCKVSNKGLPAPIEKTISKTKGQPREPQVYTLPPSREEMTKNQVSLTCLVKGFYPSDIAVEWESNGQPENNYKTTPPMLDSDGSFFLYSKLTVDKSRWQQGNVFSCSVMHEALHNHYTQKSLSLSPG
Molecule B1 showed an Activity of human insulin receptor subtype B (EC50), autophosphorylation in CHO-K1-hIRB cells (HTRF phospho-Y1150/1151) of 182 nM.

B2: fusion protein 8 (insulin analog 1 + L2 + IgG2 Fc1) (Fc fusion)
chain: FVNQHLCGEHLVEALYLVCGERGFHYGGGGGGSGGGGGIVEQCCESICSLEQLENYCGGGGGAGGGGAGGGGAGGGGGECPPCPAPPVAGPSVFLFPPKPKDTLMISRTPEVTCVVVDVSHEDPEVQFNWYVDGVEVHNAKTKPREEQFNSTFRVVSVLTVVHQDWLNGKEYKCKVSNKGLPAPIEKTISKTKGQPREPQVYTLPPSREEMTKNQVSLTCLVKGFYPSDIAVEWESNGQPENNYKTTPPMLDSDGSFFLYSKLTVDKSRWQQGNVFSCSVMHEALHNHYTQKSLSLSPG
B2 showed an Activity of human insulin receptor subtype B (EC50), autophosphorylation in CHO-K1-hIRB cells (HTRF phospho-Y1150/1151) of 326 nM.

B3: fusion protein 4 (insulin analog 4 + L2 + IgG2 Fc1) (Fc fusion)
chain: B2 chain with N3K, A63Q, A68Q, A73Q
Take B3: the Activity of human insulin receptor subtype B (EC50), autophosphorylation in CHO-K1-hIRB cells (HTRF phospho-Y1150/1151) came to 288 nM.

B4: LY3209590 (Fc fusion)
chain: B2 chain with E9S, Y16E, E45T, I47T, E51D, A63Q, A68Q, A73Q
B4 showed an Activity of human insulin receptor subtype B (EC50), autophosphorylation in CHO-K1-hIRB cells (HTRF phospho-Y1150/1151) of 116 nM.

B5: fusion protein 1 (insulin analog 1 + L2 + IgG2 Fc1) (Fc fusion)
chain: B2 chain with A63Q, A68Q, A73Q
The molecule B5 showed an Activity of human insulin receptor subtype B (EC50), autophosphorylation in CHO-K1-hIRB cells (HTRF phospho-Y1150/1151) of 422 nM.

B6: fusion protein 3 (insulin analog 3 + L2 + IgG2 Fc1) (Fc fusion)
chain: B2 chain with E9S, Y16H, E45T, G58N, A63Q, A68Q, A73Q
In the case of B6, the Activity of human insulin receptor subtype B (EC50), autophosphorylation in CHO-K1-hIRB cells (HTRF phospho-Y1150/1151) is 4.57 nM.

B7: fusion protein 9 (insulin analog 6 + L2 + IgG2 Fc1) (Fc fusion)
chain: B2 chain with G58N, G59H, A63Q, A68Q, A73Q
B7 displayed an Activity of human insulin receptor subtype B (EC50), autophosphorylation in CHO-K1-hIRB cells (HTRF phospho-Y1150/1151) of 120 nM.

B8: fusion protein 2 (insulin analog 2 + L2 + IgG2 Fc1) (Fc fusion)
chain: B2 chain with E9S, E45H, A63Q, A68Q, A73Q
For the molecule B8, the Activity of human insulin receptor subtype B (EC50), autophosphorylation in CHO-K1-hIRB cells (HTRF phospho-Y1150/1151) is 2.68 nM.

B9: fusion protein 6 (insulin analog 5 + L2 + IgG2 Fc1) (Fc fusion)
chain: FVNQHLCGEHLVEALYLVCGERGFHYGGGGGSGGGGGIVEQCCESICSLEQLENYCGGGGGQGGGGQGGGGQGGGGGECPPCPAPPVAGPSVFLFPPKPKDTLMISRTPEVTCVVVDVSHEDPEVQFNWYVDGVEVHNAKTKPREEQFNSTFRVVSVLTVVHQDWLNGKEYKCKVSNKGLPAPIEKTISKTKGQPREPQVYTLPPSREEMTKNQVSLTCLVKGFYPSDIAVEWESNGQPENNYKTTPPMLDSDGSFFLYSKLTVDKSRWQQGNVFSCSVMHEALHNHYTQKSLSLSPG
The molecule B9 showed an Activity of human insulin receptor subtype B (EC50), autophosphorylation in CHO-K1-hIRB cells (HTRF phospho-Y1150/1151) of 328 nM.

B10: fusion protein 7 (insulin analog 1 + L2 + IgG2 Fc1) (Fc fusion)
chain: FVNQHLCGEHLVEALYLVCGERGFHYGGGGGGSGGGGGIVEQCCESICSLEQLENYCGPGPQPGPQPGPQPGPQPGPQPGPQPGPQPGPQECPPCPAPPVAGPSVFLFPPKPKDTLMISRTPEVTCVVVDVSHEDPEVQFNWYVDGVEVHNAKTKPREEQFNSTFRVVSVLTVVHQDWLNGKEYKCKVSNKGLPAPIEKTISKTKGQPREPQVYTLPPSREEMTKNQVSLTCLVKGFYPSDIAVEWESNGQPENNYKTTPPMLDSDGSFFLYSKLTVDKSRWQQGNVFSCSVMHEALHNHYTQKSLSLSPG
With B10, the Activity of human insulin receptor subtype B (EC50), autophosphorylation in CHO-K1-hIRB cells (HTRF phospho-Y1150/1151) is 275 nM.

For the origin of these results see US20250206797A1.
